How the values were obtained:
Format in all cases: cell-based, rabbit
[1] = tested on: renal proximal tubule cells (RPTC); assay: Cell cycle analysis by flow cytometry: number of RPTC in S-phase; details: 24 hr treatment, four days following plating; suramin 50 μM, EGF 10 ng/ml; untreated approximately 20%
Description: (§1) Isolation and culture of renal proximal tubules: Isolation and culture of renal proximal tubules were performed as described previously (Rodeheaver et al., 1990; Nowak and Schnellmann, 1995; Nowak and Schnellmann, 1996). Female New Zealand White rabbits (1.5-2.5 kg) were purchased from Myrtle's Rabbitry (Thompson Station, Tenn.). RPTC were isolated using the iron oxide perfusion method and grown in 6-well tissue culture dishes under improved conditions. The culture medium was an 1:1 mixture of DMEM/Ham's F-12 (without glucose, phenol red, or sodium pyruvate) supplemented with 15 mM HEPES buffer, 2.5 mM L-glutamine, 1 μM pyridoxine HCl, 15 mM sodium bicarbonate, and 6 mM lactate. Hydrocortisone (50 μM), selenium (5 ng/ml), human transferrin (5 μg/ml) bovine insulin (10 nM) and L-ascorbic acid-2-phosphate (50 μM) were added daily to fresh culture medium.
Isolated tubules were plated at 1 mg protein/well in a 6-well plate. On day 2, RPTC were incubated in the presence and absence of various pharmacological inhibitors for different time periods as indicated in the figure legends. […]
Cell cycle analysis: Cell cycle phase was determined using flow cytometry as previously described (Zhuang et al., 2004). Cells were harvested, stained with propidium iodide and the number of cells in S-phase of cell cycle determined.

[2] = tested on: renal proximal tubule cells (RPTC); assay: RPTC scattering, fibroblast-like morphology and lamellipodia (bright field, phalloidin staining); details: 50 μM suramin or 10 ng/ml EGF, 24 hr, phalloidin staining
Description: as §1
(§2) Isolated tubules were plated at 1 mg protein/well in a 6-well plate. On day 2, RPTC were incubated in the presence and absence of various pharmacological inhibitors for different time periods as indicated in the figure legends. For some experiments, suramin was added to RPTC on day 3 and then incubated for 24 hr in the presence or absence of various inhibitors before samples were taken.
Immunocytochemistry: After various treatments, RPTC were fixed with 10% buffered formalin, washed, permeabilized, and blocked with BSA. […]

[3] = tested on: renal proximal tubule cells (RPTC); assay: RPTC outgrowth from plated renal proximal tubules (photographs); details: after 24 hr exposed for 24 hr, 50 μM suramin, 10 ng/ml EGF or suramin+EGF
Description: as §1, §2

EGF receptor = assay: Immunoblot of EGF receptor phosphorylation (Tyr1068) in RPTC; details: 50 μM suramin, 10 ng/ml EGF or both for 10 min
Description: Preparation of cell lysates and immunoblot analysis: After different treatments, RPTC were washed twice with PBS and harvested in lysis buffer (0.25 M Tris-HCl, pH 6.8, 4% SDS, 10% glycerol, 1 mg/ml bromophenol blue, and 0.5% 2-mercaptoethanol). Cells were disrupted by sonication for 15 seconds and lysates stored at −20 °C. Equal amounts of cellular protein lysate were separated on 10% polyacrylamide gels and transferred to nitrocellulose membranes. After treatment with 5% skim milk at 4 °C overnight, membranes were incubated with various antibodies for 1 hr, and then incubated with an appropriate horseradish-peroxidase conjugated secondary antibody (Amersham, Piscataway, N.J.). Bound antibodies were visualized following chemiluminescence detection on autoradiographic film.
To determine whether suramin caused EGF receptor activation, we performed immunoblot analysis using an antibody against phosphorylated tyrosine 1068 of the EGF receptor. Total EGF receptor content was measured using immunoblot analysis and an antibody that recognizes the EGF receptor independent of its phosphorylation state to control for gel loading. […] Thus, suramin induced RPTC proliferation and scattering is not through the EGF receptor.

B1: EGF: Human recombinant EGF (epidermal growth factor) from R & D systems (protein, UniProt P01133 23-1207, looked up)
Pro-epidermal growth factor: PQHWSCPEGTLAGNGNSTCVGPAPFLIFSHGNSIFRIDTEGTNYEQLVVDAGVSVIMDFHYNEKRIYWVDLERQLLQRVFLNGSRQERVCNIEKNVSGMAINWINEEVIWSNQQEGIITVTDMKGNNSHILLSALKYPANVAVDPVERFIFWSSEVAGSLYRADLDGVGVKALLETSEKITAVSLDVLDKRLFWIQYNREGSNSLICSCDYDGGSVHISKHPTQHNLFAMSLFGDRIFYSTWKMKTIWIANKHTGKDMVRINLHSSFVPLGELKVVHPLAQPKAEDDTWEPEQKLCKLRKGNCSSTVCGQDLQSHLCMCAEGYALSRDRKYCEDVNECAFWNHGCTLGCKNTPGSYYCTCPVGFVLLPDGKRCHQLVSCPRNVSECSHDCVLTSEGPLCFCPEGSVLERDGKTCSGCSSPDNGGCSQLCVPLSPVSWECDCFPGYDLQLDEKSCAASGPQPFLLFANSQDIRHMHFDGTDYGTLLSQQMGMVYALDHDPVENKIYFAHTALKWIERANMDGSQRERLIEEGVDVPEGLAVDWIGRRFYWTDRGKSLIGRSDLNGKRSKIITKENISQPRGIAVHPMAKRLFWTDTGINPRIESSSLQGLGRLVIASSDLIWPSGITIDFLTDKLYWCDAKQSVIEMANLDGSKRRRLTQNDVGHPFAVAVFEDYVWFSDWAMPSVMRVNKRTGKDRVRLQGSMLKPSSLVVVHPLAKPGADPCLYQNGGCEHICKKRLGTAWCSCREGFMKASDGKTCLALDGHQLLAGGEVDLKNQVTPLDILSKTRVSEDNITESQHMLVAEIMVSDQDDCAPVGCSMYARCISEGEDATCQCLKGFAGDGKLCSDIDECEMGVPVCPPASSKCINTEGGYVCRCSEGYQGDGIHCLDIDECQLGEHSCGENASCTNTEGGYTCMCAGRLSEPGLICPDSTPPPHLREDDHHYSVRNSDSECPLSHDGYCLHDGVCMYIEALDKYACNCVVGYIGERCQYRDLKWWELRHAGHGQQQKVIVVAVCVVVLVMLLLLSLWGAHYYRTQKLLSKNPKNPYEESSRDVRSRRPADTEDGMSSCPQPWFVVIKEHQDLKNGGQPVAGEDGQAADGSMQPTSWRQEPQLCGMGTEQGCWIPVSSDKGSCPQVMERSFHMPSYGTQTLEGGVEKPHSLLSANPLWQQRALDPPHQMELTQ
modifications: Pro-epidermal growth factor
notes: Human recombinant EGF (epidermal growth factor) from R & D systems
**Q.** How did the “RPTC in S-phase” value [1] turn out when B1 was run?
**A.** The value was 32%.

**Q.** And the “formation of lamellipodia and intercellular contacts” value [2]?
**A.** The value was “increased the formation of lamellipodia and decreased intercellular contacts”.

**Q.** And the RPTC outgrowth [3]?
**A.** Its RPTC outgrowth is “promoted RPTC outgrowth”.

**Q.** What about the “EGF receptor phosphorylation (tyrosine 1068)” value (EGF receptor) of the same molecule?
**A.** The value was “did observe phosphorylated EGF receptor”.

From US8633250B2, “Cell repair and regeneration by suramin and related polysulfonated napthylureas” (MUSC Foundation for Research Development, priority 2006, dated 2014)
